# Measurements taken from publication PMC9238395, “Identification and Tetramer Structure of Hemin-Binding Protein SPD_0310 Linked to Iron Homeostasis and Virulence of Streptococcus pneumoniae” (mSystems, 2022).
# T1: SPD_0310 (Streptococcus pneumoniae, UniProt Q04MC1, E40A/R307A)
# T1 sequence (Q04MC1 1-494 E40A/R307A): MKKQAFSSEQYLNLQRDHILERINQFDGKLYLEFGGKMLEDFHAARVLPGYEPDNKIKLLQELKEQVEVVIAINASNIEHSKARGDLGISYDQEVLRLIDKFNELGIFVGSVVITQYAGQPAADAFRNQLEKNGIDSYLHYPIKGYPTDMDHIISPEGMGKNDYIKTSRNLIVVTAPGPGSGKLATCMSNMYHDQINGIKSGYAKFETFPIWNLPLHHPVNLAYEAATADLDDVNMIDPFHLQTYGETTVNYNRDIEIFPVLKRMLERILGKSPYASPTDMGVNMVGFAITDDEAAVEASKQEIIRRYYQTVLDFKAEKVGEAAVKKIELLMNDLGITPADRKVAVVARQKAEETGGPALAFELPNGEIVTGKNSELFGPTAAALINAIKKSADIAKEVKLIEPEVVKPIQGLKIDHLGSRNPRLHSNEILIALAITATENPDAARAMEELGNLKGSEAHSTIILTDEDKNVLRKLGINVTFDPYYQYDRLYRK
# T2: SPD_0310 (Streptococcus pneumoniae, UniProt Q04MC1, M38A/L39A/G88A/R97A)
# T2 sequence (Q04MC1 1-494 M38A/L39A/G88A/R97A): T1 sequence (Q04MC1 1-494 E40A/R307A)
# B1: SPD_0226 (natural protein)
# chain: MTVGLSYEDSAVKLLNDGANIKVVYPKEGTVFLPASAAIVKKSKNMENAKKFIDFIISQEVQDTLGTTTTNRPVRKNAKTSENMKPIDKIKTLTEDYDYVIKNKSDIVKKYNEVFTDIQSKQ
# notes: SPD_0226, intracellular iron transporter of S. pneumoniae D39
# B2: SPD_0227 (natural protein)
# chain: MNIEGYSDLLKPELKGKIATADPANSSSAFAQLTNMLQAQGGYKDDKAWSYVKDLFTLIDGIVK
# notes: SPD_0227, intracellular iron transporter of S. pneumoniae D39
# B3: SPD_0090 (natural protein, S. pneumoniae D39, UniProt A0A0H2ZQK8 1-491, looked up)
# chain: CGNLTGNSKKAADSGDKPVIKMYQIGDKPDNLDELLANANKIIEEKVGAKLDIQYLGWGDYGKKMSVITSSGENYDIAFADNYIVNAQKGAYADLTELYKKEGKDLYKALDPAYIKGNTVNGKIYAVPVAANVASSQNFAFNGTLLAKYGIDISGVTSYETLEPVLKQIKEKAPDVVPFAIGKVFIPSDNFDYPVANGLPFVIDLEGDTTKVVNRYEVPRFKEHLKTLHKFYEAGYIPKDVATSDTSFDLQQDTWFVREETVGPADYGNSLLSRVANKDIQIKPITNFIKKNQTTQVANFVISNNSKNKEKSMEILNLLNTNPELLNGLVYGPEGKNWEKIEGKENRVRVLDGYKGNTHMGGWNTGNNWILYINENVTDQQIENSKKELAEAKESPALGFIFNTDNVKSEISAIANTMQQFDTAINTGTVDPDKAIPELMEKLKSEGAYEKVLNEMQKQYDEFLKNKK
# notes: source: expressed and purified using the GST system
# B4: SPD_1609 (natural protein, S. pneumoniae D39, UniProt A0A0H2ZL87 1-355, looked up)
# chain: CSGGSNSTTASSSEEKADKSQELVIYSNSVSNGRGDWLTAKAKEAGFNIKMVDIAGAQLADRVIAEKNNAVADMVFGIGAVDSNKIRDQKLLVQYKPKWLDKIDQSLSDKDNYYNPVIVQPLVLIGAPDVKEMPKDWTELGSKYKGKYSIYGLQGGTGRAILASILVRYLDEKGDLGVSEKGWEVAKEYFANAYTLQKGESSVVKALDKESPIQYGMIWGSGALIGQKEQNVEFKVMTPEIGVPFVTEQTMVLSTSKKQALAKEFIDWFGQSEIQVEYSKKFGSIPANKDALKELPEDTKKFVDQVKPQNIDWEAVGKHLDEWVEKAELEYVK
# notes: as for B3
# B5: GAPDH (natural protein, S. pneumoniae D39, UniProt A0A0H2US80 1-335, looked up)
# chain: MVVKVGINGFGRIGRLAFRRIQNVEGVEVTRINDLTDPVMLAHLLKYDTTQGRFDGTVEVKEGGFEVNGKFIKVSAERDPEQIDWATDGVEIVLEATGFFAKKEAAEKHLKGGAKKVVITAPGGNDVKTVVFNTNHDVLDGTETVISGASCTTNCLAPMAKALQDNFGVVEGLMTTIHAYTGDQMILDGPHRGGDLRRARAGAANIVPNSTGAAKAIGLVIPELNGKLDGSAQRVPTPTGSVTELVAVLEKNVTVDEVNAAMKAASNESYGYTEDPIVSSDIVGMSYGSLFDATQTKVLDVDGKQLVKVVSWYDNEMSYTAQLVRTLEYFAKIAK
# notes: GAPDH (Gap) of S. pneumoniae D39, recombinant; also called Gly-3-pho dehydrogenase; source: expressed and purified using the GST system
# B6: SPD_0310 (natural protein)
# chain: T1 sequence (Q04MC1 1-494 E40A/R307A)
# notes: SPD_0310, hypothetical protein of the UPF0371 family, S. pneumoniae D39; spd_0310 gene cloned from genomic DNA into pGEX-4T-1 (BamH I/Sal I); Homotetramer by crystal structure and DLS; also called apo-0310; apo-SPD_0310
# What was measured:
# [1] = target: T1, SPD_0310; test: fluorescence quenching titration; format: binding
# [2] = target: T2, SPD_0310; test: fluorescence quenching titration; format: binding
# [3] = target: T3, SPD_0310 (Streptococcus pneumoniae, UniProt Q04MC1); test: SPR; also dialysis/ICP-MS, hemin-agarose pulldown, UV-Vis shift, CD thermal shift, stopped-flow fluorescence; format: binding
# T3 construct: recombinant SPD_0310 expressed from pGEX-4T-1, GST tag removed with thrombin; homotetramer
# [4] = target: SPD_0310 (S. pneumoniae D39) (UniProt Q04MC1); test: SPR; OpenSPR; SPD_0310 immobilised on a gold nanoparticle COOH sensor chip; analytes in 1× PBS, 30 μL/min; regeneration with 0.5 to ~10 mM HCl; 1:1 model
# [5] = target: B6; test: as above; conditions: both partners purified
# [6] = target: the molecule itself; test: dynamic light scattering; fresh SPD_0310 in the native state, 3 μM in 1× PBS, 25°C
Molecule,Kd [5] [nM],other results
C=CC1=C(C)C2=Cc3c(C=C)c(C)c4[n]3[Fe]([Cl])[n]3c(c(C)c(CCC(=O)O)c3=CC3=NC(=C4)C(C)=C3CCC(=O)O)=CC1=N2 [hemin],,% of WT binding constant [1]: 11 % of WT binding constant; % of WT binding constant [2]: 56 % of WT binding constant; Kd [3]: 96.9 nM
bovine lactoferrin (natural protein),,Kd [4]: 303 nM
B1,1070 ± 100,
B2,420 ± 30,
B3,3.41 ± 0.01,
B4,6.92 ± 0.08,
B5,103 ± 1.29,
B6,,stoichiometry N [6]: 4
